Results as given in patent US20250152742A1, “COMPOSITIONS AND METHODS FOR NEUROLOGICAL DISEASES” (Trames Bio, Inc., priority 2022, published 2025).

Test system: engineered chimeric receptor SEQ ID NO: 33 and its mutants (human α7-nAChR ligand binding domain / human GlyRα1 ion pore domain) in Lenti-X 293T cells
Experiment: YFP fluorescence quenching anion reporter plate reader assay (percent quench, EC50)
Assay type: cell-based
Details: for YFP fluorescence quenching using CNL001 (percent quench): receptor named in row; for YFP fluorescence quenching using Facinicline, 30 nM fac: ligand Facinicline 30 nM; for YFP fluorescence quenching using Facinicline, 300 nM fac: ligand Facinicline 300 nM; for YFP fluorescence quenching using Facinicline, 30 uM fac: ligand Facinicline 30 uM; for YFP fluorescence quenching using TC-6987, 1 uM tc6987: ligand TC-6987 1 uM; for YFP fluorescence quenching using TC-6987, 10 uM tc6987: ligand TC-6987 10 uM; for YFP fluorescence quenching using TC-6987, 500 uM tc6987: ligand TC-6987 500 uM; for YFP fluorescence quenching using Varenicline, 3 nM var: ligand Varenicline 3 nM; for YFP fluorescence quenching using Varenicline, 30 nM var: ligand Varenicline 30 nM; for YFP fluorescence quenching using Varenicline, 300 nM var: ligand Varenicline 300 nM; for YFP fluorescence quenching using Varenicline, 500 nM var: ligand Varenicline 500 nM; for YFP fluorescence quenching using Varenicline, 1 uM var: ligand Varenicline 1 uM
How it was run: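 Lenti-X 293T cells co-expressing an anion-quenchable YFP were transiently transfected with receptor DNA, then ligand was added in NaI-substituted buffer (pH 7.2) after 30 min at 37 °C. Fluorescence was read about 2 min; percent quench = mean of last 10 s over 15 s pre-ligand baseline.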

[1] = 1 nM CNL001, first column so headed
[2] = 1 nM CNL001, second column so headed
[3] = 3 nM brd (TC-5619/Bradanicline)
[4] = 10 nM CNL001, first column so headed
[5] = 10 nM CNL001, second column so headed
[6] = 30 nM brd (TC-5619/Bradanicline)
[7] = 50 nM CNL001, first column so headed
[8] = 50 nM CNL001, second column so headed
[9] = 100 nM CNL001, first column so headed
[10] = 100 nM CNL001, second column so headed
[11] = 300 nM brd (TC-5619/Bradanicline)
[12] = 1 uM CNL001, first column so headed
[13] = 1 uM CNL001, second column so headed

B1: CODA333: engineered receptor: L131S in SEQ ID NO: 33 (protein)
chain: MRCSPGGVWLALAASLLHVSLQGEFQRKLYKELVKNYNPLERPVANDSQPLTVYFSLSLLQIMDVDEKNQVLTTNIWLQMSWTDHYLQWNVSEYPGVKTVRFPDGQIWKPDILLYNSADERFDATFHTNVSVNSSGHCQYLPPGIFKSSCPMDLKNFPMDVQTCKLKFGSWSYGGWSLDLQMQEADISGYIPNGEWDLVGIPGKRSERFYECCKEPYPDVTFTVTMRRRMGYYLIQMYIPSLLIVILSWISFWINMDAAPARVGLGITTVLTMTTQSSGSRASLPKVSYVKAIDIWMAVCLLFVFSALLEYAAVNFVSRQHKELLRFRRKRRHHKSPMLNLFQEDEAGEGRFNFSAYGMGPACLQAKDGISVKGANNSNTTNPPPAPSKSPEEMRKLFIQRAKKIDKISRIGFPMAFLIFNMFYWIIYKIVRREDVHNQ
modifications: synthetic sequence of chimeric LGIC
- YFP fluorescence quenching using CNL001 (percent quench) [1]: 76.165%
- YFP fluorescence quenching using CNL001 (percent quench) [2]: 78.463%
- YFP fluorescence quenching using TC-5619/Bradanicline (percent quench) (1 nM brd (TC-5619/Bradanicline)): −0.85%
- YFP fluorescence quenching using TC-5619/Bradanicline (percent quench) [3]: −2.05%
- YFP fluorescence quenching using CNL001 (percent quench) [4]: 79.349%
- YFP fluorescence quenching using CNL001 (percent quench) [5]: 78.238%
- YFP fluorescence quenching using TC-5619/Bradanicline (percent quench) (10 nM brd (TC-5619/Bradanicline)): −2.8%
- YFP fluorescence quenching using TC-6683 (percent quench) (30 nM TC-6683): −23.88%
- YFP fluorescence quenching using TC-5619/Bradanicline (percent quench) [6]: −2.07%
- YFP fluorescence quenching using CNL001 (percent quench) [7]: 80.221%
- YFP fluorescence quenching using CNL001 (percent quench) [8]: 81.789%
- YFP fluorescence quenching using ABT-126 (percent quench) (50 nM abt (ABT-126)): −20.99%
- YFP fluorescence quenching using CNL001 (percent quench) [9]: 81.855%
- YFP fluorescence quenching using CNL001 (percent quench) [10]: 80.766%
- YFP fluorescence quenching (percent quench) (100 nM CNL002): −15.44%
- YFP fluorescence quenching using ABT-126 (percent quench) (100 nM abt (ABT-126)): −16.21%
- YFP fluorescence quenching using AZD-0328 (percent quench) (100 nM azd0328): 38.49%
- YFP fluorescence quenching using TC-5619/Bradanicline (percent quench) (100 nM brd (TC-5619/Bradanicline)): 30.34%
- YFP fluorescence quenching using TC-6683 (percent quench) (300 nM TC-6683): −21.46%
- YFP fluorescence quenching using ABT-126 (percent quench) (300 nM abt (ABT-126)): −13.34%
- YFP fluorescence quenching using AZD-0328 (percent quench) (300 nM azd0328): 67.13%
- YFP fluorescence quenching using TC-5619/Bradanicline (percent quench) [11]: 50.56%
- YFP fluorescence quenching using CNL001 (percent quench) [12]: 81.707%
- YFP fluorescence quenching using CNL001 (percent quench) [13]: 82.665%
- YFP fluorescence quenching (percent quench) (1 uM CNL002): 15.21%
- YFP fluorescence quenching using ABT-126 (percent quench) (1 uM abt (ABT-126)): 4.96%
- YFP fluorescence quenching using TC-5619/Bradanicline (percent quench) (1 uM brd (TC-5619/Bradanicline)): 72.42%
- YFP fluorescence quenching using TC-6683 (percent quench) (3 uM TC-6683): −21.07%
- YFP fluorescence quenching (percent quench) (10 uM ach (acetylcholine)): −10.11%
- YFP fluorescence quenching using TC-6683 (percent quench) (30 uM TC-6683): −16.15%
- YFP fluorescence quenching using AZD-0328 (percent quench) (30 uM azd0328): 80.61%
- YFP fluorescence quenching using TC-6683 (percent quench) (100 uM TC-6683): −18.96%
- YFP fluorescence quenching (percent quench) (100 uM ach (acetylcholine)): −10.05%
- YFP fluorescence quenching (percent quench) (1 mM ach (acetylcholine)): 32.11%
- YFP fluorescence quenching (percent quench) (3 mM ach (acetylcholine)): 57.37%
- YFP fluorescence quenching using Facinicline, 30 nM fac: 6.27
- YFP fluorescence quenching using Facinicline, 300 nM fac: 69.8
- YFP fluorescence quenching using Facinicline, 10 uM fac (ligand Facinicline 10 uM): 80.07
- YFP fluorescence quenching using Facinicline, 30 uM fac: 81.35
- YFP fluorescence quenching using TC-6987, 1 uM tc6987: −3.87
- YFP fluorescence quenching using TC-6987, 3 uM tc6987 (ligand TC-6987 3 uM): −20.2
- YFP fluorescence quenching using TC-6987, 5 uM tc6987 (ligand TC-6987 5 uM): −15.25
- YFP fluorescence quenching using TC-6987, 10 uM tc6987: 4.92
- YFP fluorescence quenching using TC-6987, 30 uM tc6987 (ligand TC-6987 30 uM): 14.75
- YFP fluorescence quenching using TC-6987, 50 uM tc6987 (ligand TC-6987 50 uM): 21.33
- YFP fluorescence quenching using TC-6987, 100 uM tc6987 (ligand TC-6987 100 uM): 29.7
- YFP fluorescence quenching using TC-6987, 300 uM tc6987 (ligand TC-6987 300 uM): 20.79
- YFP fluorescence quenching using TC-6987, 500 uM tc6987: 44.37
- YFP fluorescence quenching using Varenicline, 3 nM var (first column): −4.782
- YFP fluorescence quenching using Varenicline, 3 nM var (second column): 1.048
- YFP fluorescence quenching using Varenicline, 30 nM var (first column): 2.084
- YFP fluorescence quenching using Varenicline, 30 nM var (second column): 5.022
- YFP fluorescence quenching using Varenicline, 300 nM var (first column): 12.162
- YFP fluorescence quenching using Varenicline, 300 nM var (second column): 12.979
- YFP fluorescence quenching using Varenicline, 500 nM var (first column): 29.238
- YFP fluorescence quenching using Varenicline, 500 nM var (second column): 25.614
- YFP fluorescence quenching using Varenicline, 1 uM var (first column): 43.863
- YFP fluorescence quenching using Varenicline, 1 uM var (second column): 39.346

B2: CODA334: engineered receptor: L131Q in SEQ ID NO: 33 (protein)
chain: MRCSPGGVWLALAASLLHVSLQGEFQRKLYKELVKNYNPLERPVANDSQPLTVYFSLSLLQIMDVDEKNQVLTTNIWLQMSWTDHYLQWNVSEYPGVKTVRFPDGQIWKPDILLYNSADERFDATFHTNVQVNSSGHCQYLPPGIFKSSCPMDLKNFPMDVQTCKLKFGSWSYGGWSLDLQMQEADISGYIPNGEWDLVGIPGKRSERFYECCKEPYPDVTFTVTMRRRMGYYLIQMYIPSLLIVILSWISFWINMDAAPARVGLGITTVLTMTTQSSGSRASLPKVSYVKAIDIWMAVCLLFVFSALLEYAAVNFVSRQHKELLRFRRKRRHHKSPMLNLFQEDEAGEGRFNFSAYGMGPACLQAKDGISVKGANNSNTTNPPPAPSKSPEEMRKLFIQRAKKIDKISRIGFPMAFLIFNMFYWIIYKIVRREDVHNQ
modifications: synthetic sequence of chimeric LGIC
- YFP fluorescence quenching using CNL001 (percent quench) [1]: 76.165%
- YFP fluorescence quenching using CNL001 (percent quench) [2]: 78.463%
- YFP fluorescence quenching using TC-5619/Bradanicline (percent quench) [3]: 41.92%
- YFP fluorescence quenching using CNL001 (percent quench) [4]: 79.349%
- YFP fluorescence quenching using CNL001 (percent quench) [5]: 78.238%
- YFP fluorescence quenching using TC-6683 (percent quench) (30 nM TC-6683): −17.99%
- YFP fluorescence quenching using TC-5619/Bradanicline (percent quench) [6]: 63.65%
- YFP fluorescence quenching using CNL001 (percent quench) [7]: 80.221%
- YFP fluorescence quenching using CNL001 (percent quench) [8]: 81.789%
- YFP fluorescence quenching using ABT-126 (percent quench) (50 nM abt (ABT-126)): 23.65%
- YFP fluorescence quenching using CNL001 (percent quench) [9]: 82%
- YFP fluorescence quenching using CNL001 (percent quench) [10]: 80.766%
- YFP fluorescence quenching (percent quench) (100 nM CNL002): 49.9%
- YFP fluorescence quenching using ABT-126 (percent quench) (100 nM abt (ABT-126)): 61.83%
- YFP fluorescence quenching using AZD-0328 (percent quench) (100 nM azd0328): 80.55%
- YFP fluorescence quenching using TC-6683 (percent quench) (300 nM TC-6683): −23.26%
- YFP fluorescence quenching using ABT-126 (percent quench) (300 nM abt (ABT-126)): 76.44%
- YFP fluorescence quenching using AZD-0328 (percent quench) (300 nM azd0328): 83.15%
- YFP fluorescence quenching using TC-5619/Bradanicline (percent quench) [11]: 64.85%
- YFP fluorescence quenching using CNL001 (percent quench) [12]: 81.707%
- YFP fluorescence quenching using CNL001 (percent quench) [13]: 82.665%
- YFP fluorescence quenching (percent quench) (1 uM CNL002): 80.72%
- YFP fluorescence quenching using ABT-126 (percent quench) (1 uM abt (ABT-126)): 77.68%
- YFP fluorescence quenching using TC-6683 (percent quench) (3 uM TC-6683): −18.84%
- YFP fluorescence quenching (percent quench) (10 uM ach (acetylcholine)): −2.63%
- YFP fluorescence quenching (percent quench) (30 uM CNL002): 80.97%
- YFP fluorescence quenching using TC-6683 (percent quench) (30 uM TC-6683): −16.92%
- YFP fluorescence quenching (percent quench) (30 uM ach (acetylcholine)): 30.06%
- YFP fluorescence quenching using AZD-0328 (percent quench) (30 uM azd0328): 82.53%
- YFP fluorescence quenching using TC-6683 (percent quench) (100 uM TC-6683): −15.59%
- YFP fluorescence quenching (percent quench) (100 uM ach (acetylcholine)): 71.27%
- YFP fluorescence quenching (percent quench) (1 mM ach (acetylcholine)): 79.66%
- YFP fluorescence quenching (percent quench) (3 mM ach (acetylcholine)): 74.9%
- YFP fluorescence quenching using Facinicline, 30 nM fac: 83.07
- YFP fluorescence quenching using Facinicline, 100 nM fac (ligand Facinicline 100 nM): 85.36
- YFP fluorescence quenching using Facinicline, 300 nM fac: 84.19
- YFP fluorescence quenching using Facinicline, 30 uM fac: 82.75
- YFP fluorescence quenching using TC-6987, 1 uM tc6987: 74.1
- YFP fluorescence quenching using TC-6987, 10 uM tc6987: 81.7
- YFP fluorescence quenching using TC-6987, 500 uM tc6987: 80.18
- YFP fluorescence quenching using Varenicline, 3 nM var (first column): −5.192
- YFP fluorescence quenching using Varenicline, 3 nM var (second column): −4.327
- YFP fluorescence quenching using Varenicline, 30 nM var (first column): −0.688
- YFP fluorescence quenching using Varenicline, 30 nM var (second column): 0.672
- YFP fluorescence quenching using Varenicline, 300 nM var (first column): 75.189
- YFP fluorescence quenching using Varenicline, 300 nM var (second column): 74.923
- YFP fluorescence quenching using Varenicline, 500 nM var (first column): 79.048
- YFP fluorescence quenching using Varenicline, 500 nM var (second column): 80.337
- YFP fluorescence quenching using Varenicline, 1 uM var (first column): 79.766
- YFP fluorescence quenching using Varenicline, 1 uM var (second column): 76.836
